In the supplement of paper PMC10201428:
± gives the standard deviation of the averaged measurements.

B1: library; a variant is named by its letters at N, in order (parent)
chain: AATGTTGTTGATGCAACCATAAAGTGATATTTAATAATTATTTATAATCAGCAACTTAACCACAAAACAACCATATATTGATATNTCACAAAACAACCATAANTTGATATTTTTGTGAATCGAGTATTTCAGCAAAACTACTGCAGTAAGAA

What was measured:
[1] = variants of: B1; assay: relative integration efficiency (T-LR orientation) vs wild-type transposon end (log2 (normalized fold change)); transposon end mutated: left end; higher = more efficient transposition; settings: with VchCAST RNA-guided transposition machinery (E. coli BL21(DE3) host, lacZ target)
Method: (§1)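 Pooled, barcoded VchCAST (Tn6677) mini-transposon donor libraries; each variable transposon-end sequence sits in a fixed pDonor mini-transposon context (10-bp barcode and cargo not included). Left- or right-end libraries were co-transformed with pEffector (TniQ-Cascade, TnsABC, lacZ crRNA, T7, 0.1 mM IPTG) into E. coli BL21(DE3) and grown 18 h at 37 C. T-LR and T-RL junction amplicons were sequenced; output/input barcode fold change was normalised to the mean of four wild-type barcodes and log2-transformed. Two biological replicates; zero-count/undetected variants carry floor values (-10 / -15), censored here. Barcode uncoupling by PCR recombination adds noise.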

[2] = variants of: B1; assay: relative integration efficiency (T-RL orientation) vs wild-type transposon end (log2 (normalized fold change)); transposon end mutated: left end; higher = more efficient transposition; settings: with VchCAST RNA-guided transposition machinery (E. coli BL21(DE3) host, lacZ target)
Method: as §1

Row | Variant | relative integration efficiency (log2) [1] | relative integration efficiency (log2) [2]
1 | CA | 0.637 ± 0.24 | 0.299 ± 0.068
2 | TA A16C G24T T30A A70C T76A T84A C87A A96C T110A T113A | -0.489 ± 0.47 | -0.00649 ± 0.34
3 | TA A16C G24T T30A A70C T76A T84A C87A A96C T112G T113C | -0.489 ± 0.88 | 0.259 ± 0.14
4 | TA A16C G24T T30A A70C T76A T84A C87A A102T T111C T113C | -0.517 ± 1.4 | -0.107 ± 0.55
5 | TA A16C G24T T30A A70C T76A T84A C87A T104A T110A T113A | -0.0907 ± 0.0099 | 0.0016 ± 0.4
6 | TA A16C G24T T30A A70C T76A T84A C87A T104G T113A | 0.223 ± 0.78 | -0.109 ± 0.46
7 | TA A16C G24T T30A A70C T76A T86G A96C T110A T113A | -0.0192 ± 0.24 | -0.213 ± 0.29
8 | TA A16C G24T T30A A70C T76A T86G A96C T112G T113C | -0.394 ± 0.73 | -0.421 ± 0.27
9 | TA A16C G24T T30A A70C T76A T86G A102T T111C T113C | -0.48 ± 1.4 | -0.134 ± 0.32
10 | TA A16C G24T T30A A70C T76A T86G T104A T110A T113A | -0.858 ± 0.25 | -0.764 ± 0.36
11 | TA A16C G24T T30A A70C T76A T86G T104G T113A | -0.388 ± 0.33 | -0.652 ± 0.39
12 | CA A16C G24T T30A A96C T110A T113A | -0.499 ± 0.66 | -0.208 ± 0.19
13 | CA A16C G24T T30A A96C T112G T113C | -0.699 ± 0.71 | -0.628 ± 0.18
14 | CA A16C G24T T30A A102T T111C T113C | -0.907 ± 1 | -0.887 ± 0.57
15 | TA A16C G24T T30A T76A A77G C87T A96C T110A T113A | 0.1 ± 1.2 | -0.0467 ± 0.48
16 | TA A16C G24T T30A T76A A77G C87T A96C T112G T113C | 0.0498 ± 0.26 | -0.0655 ± 0.56
17 | TA A16C G24T T30A T76A A77G C87T A102T T111C T113C | -1.05 ± 1.4 | -0.994 ± 0.46
18 | TA A16C G24T T30A T76A A77G C87T T104A T110A T113A | -0.222 ± 0.22 | -0.901 ± 0.53
19 | TA A16C G24T T30A T76A A77G C87T T104G T113A | -0.204 ± 0.73 | -0.483 ± 0.46

Row | Variant | relative integration efficiency (log2) [1] | relative integration efficiency (log2) [2]
20 | TA A16C G24T T30A T76A T78A T84A C87A A96C T110A T113A | -0.28 ± 0.67 | -0.316 ± 0.43
21 | TA A16C G24T T30A T76A T78A T84A C87A A96C T112G T113C | -0.55 ± 0.9 | -0.0685 ± 0.46
22 | TA A16C G24T T30A T76A T78A T84A C87A A102T T111C T113C | -0.306 ± 1.3 | -0.415 ± 0.32
23 | TA A16C G24T T30A T76A T78A T84A C87A T104A T110A T113A | 0.114 ± 0.83 | -0.0645 ± 0.35
24 | TA A16C G24T T30A T76A T78A T84A C87A T104G T113A | -0.559 ± 0.18 | -0.412 ± 0.26
25 | TA A16C G24T T30A T76A T78G C87A A96C T110A T113A | 0.235 ± 1.1 | 0.17 ± 0.13
26 | TA A16C G24T T30A T76A T78G C87A A96C T112G T113C | -0.557 ± 0.27 | -0.232 ± 0.21
27 | TA A16C G24T T30A T76A T78G C87A A102T T111C T113C | -0.495 ± 0.48 | -0.243 ± 0.23
28 | TA A16C G24T T30A T76A T78G C87A T104A T110A T113A | -0.00394 ± 0.69 | -0.0421 ± 0.16
29 | TA A16C G24T T30A T76A T78G C87A T104G T113A | -0.0106 ± 0.39 | -0.0789 ± 0.27
30 | CA A16C G24T T30A T104A T110A T113A | -0.532 ± 0.028 | -0.543 ± 0.56
31 | CA A16C G24T T30A T104G T113A | -0.245 ± 0.15 | -0.185 ± 0.23
32 | TA A16C G24T T32G A33C A70C T76A T84A C87A A96C T110A T113A | -0.499 ± 1.2 | -0.0812 ± 0.47
33 | TA A16C G24T T32G A33C A70C T76A T84A C87A A96C T112G T113C | -0.915 ± 1.2 | -0.234 ± 0.35
34 | TA A16C G24T T32G A33C A70C T76A T84A C87A A102T T111C T113C | -1.61 ± 0.92 | -0.84 ± 0.38
35 | TA A16C G24T T32G A33C A70C T76A T84A C87A T104A T110A T113A | -2.03 ± 1.6 | -0.844 ± 0.55
36 | TA A16C G24T T32G A33C A70C T76A T84A C87A T104G T113A | -1.55 ± 1.7 | -0.951 ± 0.57
37 | TA A16C G24T T32G A33C A70C T76A T86G A96C T110A T113A | -0.842 ± 0.018 | -0.63 ± 0.38
38 | TA A16C G24T T32G A33C A70C T76A T86G A96C T112G T113C | -1.11 ± 0.096 | -0.726 ± 0.16

Row | Variant | relative integration efficiency (log2) [1] | relative integration efficiency (log2) [2]
39 | TA A16C G24T T32G A33C A70C T76A T86G A102T T111C T113C | -1.2 ± 0.65 | -0.838 ± 0.29
40 | TA A16C G24T T32G A33C A70C T76A T86G T104A T110A T113A | -0.474 ± 0.24 | -0.791 ± 0.56
41 | TA A16C G24T T32G A33C A70C T76A T86G T104G T113A | -0.573 ± 0.99 | -0.869 ± 0.48
42 | CA A16C G24T T32G A33C A96C T110A T113A | -1.02 ± 1.2 | -0.362 ± 0.31
43 | CA A16C G24T T32G A33C A96C T112G T113C | -1.27 ± 0.78 | -0.695 ± 0.12
44 | CA A16C G24T T32G A33C A102T T111C T113C | -0.854 ± 0.58 | -0.751 ± 0.51
45 | TA A16C G24T T32G A33C T76A A77G C87T A96C T110A T113A | -1.08 ± 1.6 | -0.54 ± 0.44
46 | TA A16C G24T T32G A33C T76A A77G C87T A96C T112G T113C | -0.88 ± 1.2 | -0.489 ± 0.45
47 | TA A16C G24T T32G A33C T76A A77G C87T A102T T111C T113C | -1.56 ± 0.58 | -1.11 ± 0.63
48 | TA A16C G24T T32G A33C T76A A77G C87T T104A T110A T113A | -0.782 ± 0.82 | -1.38 ± 0.49
49 | TA A16C G24T T32G A33C T76A A77G C87T T104G T113A | -0.746 ± 0.94 | -1.52 ± 0.61
50 | TA A16C G24T T32G A33C T76A T78A T84A C87A A96C T110A T113A | -0.572 ± 0.61 | -0.189 ± 0.31
51 | TA A16C G24T T32G A33C T76A T78A T84A C87A A96C T112G T113C | -0.572 ± 0.31 | -0.447 ± 0.34
52 | TA A16C G24T T32G A33C T76A T78A T84A C87A A102T T111C T113C | -0.59 ± 0.77 | -0.405 ± 0.22
53 | TA A16C G24T T32G A33C T76A T78A T84A C87A T104A T110A T113A | -0.781 ± 0.91 | -0.706 ± 0.26
54 | TA A16C G24T T32G A33C T76A T78A T84A C87A T104G T113A | -0.166 ± 0.52 | -0.296 ± 0.42
55 | TA A16C G24T T32G A33C T76A T78G C87A A96C T110A T113A | -0.283 ± 0.56 | -0.233 ± 0.26
56 | TA A16C G24T T32G A33C T76A T78G C87A A96C T112G T113C | -0.523 ± 0.65 | -0.344 ± 0.18
57 | TA A16C G24T T32G A33C T76A T78G C87A A102T T111C T113C | -0.986 ± 0.79 | -0.362 ± 0.18
